Laboratory results reported in patent US20110171220A1 (published 2011).

B1: Clone 2 anti-PD-1 antibody (antibody, V domains shown)
VH: QVQLQQPGAELVKPGASVKLSCKASGYTFTTYYLYWVRQRPGQGLEWIGGINPSNGGTNFNEKFKSKATLTVDKSSSTAYMQLNSLTSEDSAVYYCTRRDYRYDRGFDYWGQGTSVTV
VL: DIVLTQSPASLAVSLGQRATISCRASKSVSTSGFNYIHWYQQKPGQPPKLLIYLASNLESGVPARFSGSGSGTDFTLNIHPVEDEDAATYYCQHSRELPLTFGAGTKLEIK
B2: Clone 19 anti-PD-1 antibody (antibody, V domains shown)
VH: QVQLQQSGAELVKPGASVKMSCKAFGYTFTTYPIEWMKQNHGKSLEWIGNFHPYNDDTKYNEKFKGKAKLTVEKSSTTVYLELSRLTSDDSAVYYCARENYGSHGGFVYWGQGTLVTV
VL: ENVLTQSPAIMSASPGEKVTMTCRASSSVISSYLHWYQQKSGASPKLWIYSTSNLASGVPDRFSGSGSGTSYSLTISSVEAEDAATYYCQQYNGYPLTFGAGTKLEIK
B3: Clone 10 anti-PD-1 antibody (antibody, V domains shown)
VH: DVQLQESGPGLVKPSQSLSLTCTVTGYSITSDYAWNWIRQFPGNKLEWMGYINYSGSTSYNPSLKSRISITRDTSKNQFFLQLNSVTTEDTATYYCARWIGSSAWYFDVWGAGTTVTV
VL: DVLMTQTPLSLPVSLGDQASISCRSGQNIVHSNGNTYLEWYLQKPGQSPKLLIYKVSNRFFGVPDRISGSGSGTDFTLKISRVEAEDLGVYFCFQGSHVPFTFGSGTKLEIK

Target: Monomeric soluble human PD-1 (human, UniProt Q15116 25-170)
Test: SPR; pH 7.4

Sequence of Monomeric soluble human PD-1 (Q15116 25-170): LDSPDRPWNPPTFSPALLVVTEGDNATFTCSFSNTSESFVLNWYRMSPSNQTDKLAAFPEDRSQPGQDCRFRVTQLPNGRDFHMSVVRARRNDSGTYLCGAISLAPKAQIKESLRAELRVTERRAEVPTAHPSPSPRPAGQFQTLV

Row | Binder | koff
1 | B1 | ~0.0027 s⁻¹
2 | B2 | ~0.0013 s⁻¹
3 | B3 | ~0.4 s⁻¹
